Measurements taken from patent US20230265179A1 (TWIST BIOSCIENCE, published 2023).

T1: IL1RL1 over-expressed on Expi293 cells (UniProt Q01638 19-556, limits assumed)
T1 construct: whole, on cells; Target of the flow cytometry MFI ratio (over-expressing cells over parent cells); also called cytokine over-expressing Expi293 cells
T1 sequence (looked up): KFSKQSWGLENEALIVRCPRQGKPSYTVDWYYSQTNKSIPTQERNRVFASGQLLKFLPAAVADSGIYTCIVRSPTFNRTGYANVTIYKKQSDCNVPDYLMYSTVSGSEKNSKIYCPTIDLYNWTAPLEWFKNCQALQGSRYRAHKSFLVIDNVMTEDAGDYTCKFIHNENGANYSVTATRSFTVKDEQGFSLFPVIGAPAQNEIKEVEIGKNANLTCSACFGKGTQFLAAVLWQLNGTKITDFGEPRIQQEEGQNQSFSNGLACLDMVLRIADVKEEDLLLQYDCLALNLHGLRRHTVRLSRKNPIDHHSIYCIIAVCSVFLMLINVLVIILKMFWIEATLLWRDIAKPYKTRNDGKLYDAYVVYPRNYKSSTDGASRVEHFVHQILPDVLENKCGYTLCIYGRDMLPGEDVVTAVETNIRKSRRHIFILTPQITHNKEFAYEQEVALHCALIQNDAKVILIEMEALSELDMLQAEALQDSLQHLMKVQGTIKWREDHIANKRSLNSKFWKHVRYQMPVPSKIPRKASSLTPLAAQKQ

T2: IL1RL1 (UniProt Q01638 19-328, limits assumed)
T2 construct: SPR analyte
T2 sequence (looked up): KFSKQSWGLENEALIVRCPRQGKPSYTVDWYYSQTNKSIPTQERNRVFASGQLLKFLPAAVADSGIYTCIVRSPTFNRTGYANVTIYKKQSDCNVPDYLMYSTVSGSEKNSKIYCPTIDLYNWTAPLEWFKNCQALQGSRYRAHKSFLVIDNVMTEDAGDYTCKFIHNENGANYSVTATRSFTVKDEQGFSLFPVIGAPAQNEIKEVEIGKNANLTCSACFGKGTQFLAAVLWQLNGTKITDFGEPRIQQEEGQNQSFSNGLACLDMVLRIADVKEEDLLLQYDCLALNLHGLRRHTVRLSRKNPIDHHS


Tests used:
[1] = molecular target: T1, IL1RL1 over-expressed on Expi293 cells; test: flow cytometry, 100 nM antibody, over-expressing Expi293 / parent cells
Procedure: All incubations and washes were in buffer containing PBS+1% BSA. MFI Ratio is defined by the mean fluorescence intensity (MFI) of the cytokine over-expressing Expi293 cell over the Expi293 parent cell. […] EC50 was calculated in GraphPad Prism.

[2] = molecular target: T2, IL1RL1; test: SPR (Carterra LSA), antibody amine-coupled, 1:1 model;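 also: HC30M sensor chip at 25 °C in HBS-TE, analyte at rising concentrations in buffer containing 0.5 mg/mL BSA, 5 min association then 15 min dissociation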
Procedure: SPR experiments were performed on a Carterra LSA SPR biosensor equipped with a HC30M chip at 25° C. in HBS-TE. Antibodies were diluted to 10 μg/mL and amine-coupled to the sensor chip by EDC/NHS activation, followed by ethanolamine HCl quenching. Increasing concentrations of analyte were flowed over the sensor chip in HBS-TE with 0.5 mg/mL BSA with 5-minute association and 15-minute dissociation. Following each injection cycle the surface was regenerated with 2× 30-second injections of IgG elution buffer (Thermo). Data were analyzed in Carterra's Kinetics Tool software with 1:1 binding model.

Binder | 100 nM FACS (MFI Ratio) [1] | Kd [2] | koff [2] | kon [2]
IL1RL1-7 (Fc fusion, not shown: a dimerising Fc or GST, VHH-Fc on IgG2 Fc) VHH: EVQLVESGGGLVQPGGSLRLSCAASGRTSNIYAMGWFRQAPGKEREPVASITPGGRFPAYADSVKGRFTISADNSKNTAYLQMNSLKPEDTAVYYCSTLYYSGLDPVDYWGQGTLVTVSS | 586 MFI ratio | ≤ 0.0757 nM | ≤ 1e-05 s⁻¹ | 132000 M⁻¹ s⁻¹
IL1RL1-5 (Fc fusion, not shown: a dimerising Fc or GST, VHH-Fc on IgG2 Fc) VHH: EVQLVESGGGLVQPGGSLRLSCAASGRTFSSIVMGWFRQAPGKEREMVAVIIDSRTTKYADSVKGRFTISADNSKNTAYLQMNSLKPEDTAVYYCAAVGGATTVTASEWDWGQGTLVTVSS | 508 MFI ratio | 0.846 nM | 0.000162 s⁻¹ | 191000 M⁻¹ s⁻¹
IL1RL1-53 (Fc fusion, not shown: a dimerising Fc or GST, VHH-Fc on IgG2 Fc) VHH: EVQLVESGGGLVQPGGSLRLSCAASGRTPSIIAMGWFRQAPGKERELVAVIIDSRTTKYADSVKGRFTISADNSKNTAYLQMNSLKPEDTAVYYCAAVGGATTVTASEWDWGQGTLVTVSS | 441 MFI ratio | 0.927 nM | 0.000267 s⁻¹ | 289000 M⁻¹ s⁻¹
IL1RL1-4 (Fc fusion, not shown: a dimerising Fc or GST, VHH-Fc on IgG2 Fc) VHH: EVQLVESGGGLVQPGGSLRLSCAASGNAFRSTVMGWFRQAPGKEREFVAVIIDSRTTKYADSVKGRFTISADNSKNTAYLQMNSLKPEDTAVYYCAAVGGATTVTASEWDWGQGTLVTVSS | 472 MFI ratio | ≤ 0.0574 nM | ≤ 1e-05 s⁻¹ | 174000 M⁻¹ s⁻¹
IL1RL1-74 (Fc fusion, not shown: a dimerising Fc or GST, VHH-Fc on IgG2 Fc) VHH: EVQLVESGGGLVQPGGSLRLSCAASGFTFSSAIMGWFRQAPGKERELVAVIIDSRTTKYADSVKGRFTISADNSKNTAYLQMNSLKPEDTAVYYCAAVGGATTVTASEWDWGQGTLVTVSS | 521 MFI ratio | ≤ 0.0505 nM | ≤ 1e-05 s⁻¹ | 198000 M⁻¹ s⁻¹
IL1RL1-6 (Fc fusion, not shown: a dimerising Fc or GST, VHH-Fc on IgG2 Fc) VHH: EVQLVESGGGLVQPGGSLRLSCAASGRTISTYGMGWFRQAPGKEREWVSGINRDGSTYYADRVKGRFTISADNSKNTAYLQMNSLKPEDTAVYYCALRRLSPPPLLDWGQGTLVTVSS | 128 MFI ratio | 0.149 nM | 3.7e-05 s⁻¹ | 248000 M⁻¹ s⁻¹
IL1RL1-90 (Fc fusion, not shown: a dimerising Fc or GST, VHH-Fc on IgG2 Fc) VHH: EVQLVESGGGLVQPGGSLRLSCAASGVTLDLYAMGWFRQAPGKEREAVASISSSGSSIYYADSVKGRFTISADNSKNTAYLQMNSLKPEDTAVYYCAANYGGSVLYNWGQGTLVTVSS | 105 MFI ratio | ≤ 0.078 nM | ≤ 1e-05 s⁻¹ | 128000 M⁻¹ s⁻¹
IL1RL1-8 (Fc fusion, not shown: a dimerising Fc or GST, VHH-Fc on IgG2 Fc) VHH: EVQLVESGGGLVQPGGSLRLSCAASGRTSNIYAMGWFRQAPGKEREFVASLSASGSLTWYADSVKGRFTISADNSKNTAYLQMNSLKPEDTAVYYCAANYGGSVLYNWGQGTLVTVSS | 298 MFI ratio | ≤ 0.166 nM | ≤ 1e-05 s⁻¹ | 60300 M⁻¹ s⁻¹
IL1RL1-257 (antibody, V domains shown, IgG2) VH: EVQLLESGGGLVQPGGSLRLSCAASGFTFSPRRMSWVRQAPGKGLEWVSAITGSGGSTYYADSVKGRFTISRDNSKNTLYLQMNSLRAEDTAVYYCARGRLFDYWGQGTLVTVSS VL: DIQMTQSPSSLSASVGDRVTITCRASQSISGYLNWYQQKPGKAPKLLIYGNNNRPSGVPSRFSGSGSGTDFTLTISSLQPEDFATYYCSQNTHVPYTFGQGTKVEIK | 1.38 MFI ratio |  |  | 
IL1RL1-269 (antibody, V domains shown, IgG2) VH: EVQLLESGGGLVQPGGSLRLSCAASGFTFDRYRMMWVRQAPGKGLEWVSAITGSGGSTYYADSVKGRFTISRDNSKNTLYLQMNSLRAEDTAVYYCAKGLRRFDYWGQGTLVTVSS VL: DIQMTQSPSSLSASVGDRVTITCRASQSVDRYFNWYQQKPGKAPKLLIYGKNIRPSGVPSRFSGSGSGTDFTLTISSLQPEDFATYYCGQSYRYPLTFGQGTKVEIK | 0.85 MFI ratio |  |  | 
IL1RL1-3 (Fc fusion, not shown: a dimerising Fc or GST) VHH: EVQLVESGGGLVQPGGSLRLSCAASGRTFSMGWFRQAPGKEREWVSSIGIAGTPTFYADSVKGRFTISADNSKNTAYLQMNSLKPEDTAVYYCASTDDYGVDWGQGTLVTVSS | 492 MFI ratio | ≤ 0.0524 nM | ≤ 1e-05 s⁻¹ | 191000 M⁻¹ s⁻¹
IL1RL1-1 (Fc fusion, not shown: a dimerising Fc or GST, VHH-Fc on IgG2 Fc) VHH: EVQLVESGGGLVQPGGSLRLSCAASGFTLDAWPMSWFRQAPGKEREVVAVIYTSDGSTYYADSVKGRFTISADNSKNTAYLQMNSLKPEDTAVYYCAASKWYGGFGDTDIEWGQGTLVTVSS | 660 MFI ratio | 0.584 nM | 0.000101 s⁻¹ | 172000 M⁻¹ s⁻¹
IL1RL1-86 (Fc fusion, not shown: a dimerising Fc or GST, VHH-Fc on IgG2 Fc) VHH: EVQLVESGGGLVQPGGSLRLSCAASGGTFSTYAMGWFRQAPGKEREWVASISTSGSTITPYADSVKGRFTISADNSKNTAYLQMNSLKPEDTAVYYCAAIAYEEGVYRWDWGQGTLVTVSS | 204 MFI ratio | ≤ 0.0762 nM | ≤ 1e-05 s⁻¹ | 131000 M⁻¹ s⁻¹
IL1RL1-52 (Fc fusion, not shown: a dimerising Fc or GST, VHH-Fc on IgG2 Fc) VHH: EVQLVESGGGLVQPGGSLRLSCAASGGTISTYAMGWFRQAPGKEREWVASISTSGSTITPYADSVKGRFTISADNSKNTAYLQMNSLKPEDTAVYYCAAIAYEEGVYRWDWGQGTLVTVSS | 225 MFI ratio | 0.121 nM | 3.48e-05 s⁻¹ | 288000 M⁻¹ s⁻¹
IL1RL1-82 (Fc fusion, not shown: a dimerising Fc or GST, VHH-Fc on IgG2 Fc) VHH: EVQLVESGGGLVQPGGSLRLSCAASGRTFSTLAMGWFRQAPGKEREWVASISTSGSTITPYADSVKGRFTISADNSKNTAYLQMNSLKPEDTAVYYCAAIAYEEGVYRWDWGQGTLVTVSS | 344 MFI ratio | ≤ 0.128 nM | ≤ 1e-05 s⁻¹ | 78400 M⁻¹ s⁻¹
IL1RL1-2 (Fc fusion, not shown: a dimerising Fc or GST, VHH-Fc on IgG2 Fc) VHH: EVQLVESGGGLVQPGGSLRLSCAASGGTFSAYAMGWFRQAPGKEREWVASISTSGSTITPYADSVKGRFTISADNSKNTAYLQMNSLKPEDTAVYYCAAIAYEEGVYRWDWGQGTLVTVSS | 277 MFI ratio | 0.265 nM | 3.11e-05 s⁻¹ | 118000 M⁻¹ s⁻¹
IL1RL1-81 (Fc fusion, not shown: a dimerising Fc or GST, VHH-Fc on IgG2 Fc) VHH: EVQLVESGGGLVQPGGSLRLSCAASGVTLDLYAMGWFRQAPGKEREWVASISTSGSTITPYADSVKGRFTISADNSKNTAYLQMNSLKPEDTAVYYCAAIAYEEGVYRWDWGQGTLVTVSS | 217 MFI ratio | 0.285 nM | 4.51e-05 s⁻¹ | 159000 M⁻¹ s⁻¹
IL1RL1-18 (Fc fusion, not shown: a dimerising Fc or GST, VHH-Fc on IgG2 Fc) VHH: EVQLVESGGGLVQPGGSLRLSCAASGVTLDLYAMGWFRQAPGKEREWVASISTSGSTITPYADSVKGRFTISADNSKNTAYLQMNSLKPEDTAVYYCAAIAHEEGVYRWDWGQGTLVTVSS | 277 MFI ratio | 0.312 nM | 3.95e-05 s⁻¹ | 126000 M⁻¹ s⁻¹
IL1RL1-262 (antibody, V domains shown, IgG2) VH: EVQLLESGGGLVQPGGSLRLSCAASGFTFSRYAMNWVRQAPGKGLEWVSAISGSGGNTYYADSVKGRFTISRDNSKNTLYLQMNSLRAEDTAVYYCARVWRNSLDYWGQGTLVTVSS VL: DIQMTQSPSSLSASVGDRVTITCSGDRLGEKYVSWYQQKPGKAPKLLIYENNNRPSGVPSRFSGSGSGTDFTLTISSLQPEDFATYYCVARAVRGNPHVLFGQGTKVEIK | 6.04 MFI ratio |  |  | 
IL1RL1-270 (antibody, V domains shown, IgG2) VH: EVQLLESGGGLVQPGGSLRLSCAASGFTFSRYFMGWVRQAPGKGLEWVSGITRSGSTNYRDSVKGRFTISRDNSKNTLYLQMNSLRAEDTAVYYCAKGPGTRGDYWGQGTLVTVSS VL: DIQMTQSPSSLSASVGDRVTITCRASQPIGPDLLWYQQKPGKAPKLLIYGASRLQRGVPSRFSGSGSGTDFTLTISSLQPEDFATYYCASRNGWNHVVFGQGTKVEIK | 0.31 MFI ratio |  |  | 
